Patent publication US20080248467, “System for pulling out regulatory elements using yeast” (published 2008)

Target: Pax3 (GST fusion or 6xHis) (UniProt P24610 P24610:1-479)
Experiment: EMSA; 25 C
Conditions: tags: GST-Pax3 or 6xHis-Pax3, bacterially expressed; label: 32P; overhangs
Procedure: Probes were generated by end-labeling double-stranded oligonucleotides with γ³² P-dATP or PCR labeling with α³²P-dGTP. Probes were incubated with or without 6×-His-Pax3 or GST-PAX3 at 25° C., and the complexes were resolved on a 6% Tris-glycine polyacrylamide gel. The free probes are designated by the bottom bracket, and the shifted Pax3:DNA complex by the asterisk to the right of each gel.
Probes were generated by end labeling double-stranded oligonucleotides with γ³²P-dATP or PCR labeling with α³²P-dGTP. Probes were incubated with or without 6×-His-Pax3 or GST-PAX3 at 25° C., and the complexes were resolved on a 6% Tris-glycine polyacrylamide gel. The location of the free probes is indicated by the bracket at left, and the shifted Pax3:DNA complexes by the asterisks to the right of each gel.

Sequence of Pax3 (GST fusion or 6xHis) (P24610 whole entry, the tested form may be a part, one chain of several): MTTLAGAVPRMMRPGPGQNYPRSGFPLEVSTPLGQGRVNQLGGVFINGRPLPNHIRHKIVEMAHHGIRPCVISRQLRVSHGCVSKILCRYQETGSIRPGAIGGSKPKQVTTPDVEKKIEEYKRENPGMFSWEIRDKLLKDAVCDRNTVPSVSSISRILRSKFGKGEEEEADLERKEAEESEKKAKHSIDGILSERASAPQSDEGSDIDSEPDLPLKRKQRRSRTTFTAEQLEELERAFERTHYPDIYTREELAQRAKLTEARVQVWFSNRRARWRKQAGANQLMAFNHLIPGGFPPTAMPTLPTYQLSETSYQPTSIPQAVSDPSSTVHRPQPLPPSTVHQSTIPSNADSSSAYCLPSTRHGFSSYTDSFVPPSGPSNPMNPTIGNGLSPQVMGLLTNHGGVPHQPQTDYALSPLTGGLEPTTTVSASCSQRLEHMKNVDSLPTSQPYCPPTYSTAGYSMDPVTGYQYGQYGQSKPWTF

B1: 2x Pax3 oligo (dsDNA)
DNA 1: CAGTGACGATTAGCACCGTCACGCTTAGATATAGTGACGATTAGCACCGTCACGCTTAGATATA
DNA 2: CGCGTATATCTAAGCGTGACGGTGCTAATCGTCACTATATCTAAGAGTGACGGTGCTAATCGTCACTGAGCT
B1: binds.
